Experimental data as given in patent publication US20210162067A1, “Composition and Methods of Controllable Co-Coupling Polypeptide Nanoparticle Delivery System for Nucleic Acid Therapeutics” (SIRNAOMICS, INC., priority 2018, published 2021).
No end group written: not given here.

Type: physicochemical
Protocol: The structure of the HKC2 was characterized by HPLC and mass spectroscopy, and a major peak at retention time at 8.053 min with a purity 90.0% was observed by RPHPLC. In the ESI-MS spectrum (FIG. 2B), a molecular ion peak was observed as double charged ion [M+2H]^2+. Similarly, triple charged, 4+ and 5+ species were also observed. It provided a molecular weight of 2683 Da, which is in good agreement with the theoretical value. […] This is a plus for its formulation with the siRNA in aqueous medium.

## K(HHHK)4CSSC (KHHHKHHHKHHHKHHHKCSSC; also: branched peptide, cross-linked through intermolecular disulfide bonds between cysteines into polymer (HKC2))
  solubility in water: readily soluble in water
